The target in assay [1] is T1, human calcitonin (a) receptor (human, UniProt P30988 25-474).
T1 sequence (looked up): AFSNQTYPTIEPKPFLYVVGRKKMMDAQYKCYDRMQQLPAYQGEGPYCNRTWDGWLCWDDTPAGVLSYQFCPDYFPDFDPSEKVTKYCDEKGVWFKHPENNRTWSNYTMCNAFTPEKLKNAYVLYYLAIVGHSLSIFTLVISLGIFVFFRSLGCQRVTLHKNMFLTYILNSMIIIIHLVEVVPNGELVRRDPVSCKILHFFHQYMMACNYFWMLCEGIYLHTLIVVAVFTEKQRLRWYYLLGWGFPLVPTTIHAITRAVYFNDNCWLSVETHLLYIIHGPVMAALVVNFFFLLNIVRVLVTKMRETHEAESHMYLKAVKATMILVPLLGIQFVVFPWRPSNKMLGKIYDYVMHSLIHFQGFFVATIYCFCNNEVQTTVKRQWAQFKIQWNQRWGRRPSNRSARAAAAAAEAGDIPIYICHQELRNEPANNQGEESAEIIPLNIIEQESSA
Briefly: cell-based or functional assay.

Assay [2] addresses T2, human amylin 3(a) receptor (human calcitonin receptor + RAMP-3) (human, UniProt P30988 25-474; O60896 24-148).
T2 sequence (looked up) 1: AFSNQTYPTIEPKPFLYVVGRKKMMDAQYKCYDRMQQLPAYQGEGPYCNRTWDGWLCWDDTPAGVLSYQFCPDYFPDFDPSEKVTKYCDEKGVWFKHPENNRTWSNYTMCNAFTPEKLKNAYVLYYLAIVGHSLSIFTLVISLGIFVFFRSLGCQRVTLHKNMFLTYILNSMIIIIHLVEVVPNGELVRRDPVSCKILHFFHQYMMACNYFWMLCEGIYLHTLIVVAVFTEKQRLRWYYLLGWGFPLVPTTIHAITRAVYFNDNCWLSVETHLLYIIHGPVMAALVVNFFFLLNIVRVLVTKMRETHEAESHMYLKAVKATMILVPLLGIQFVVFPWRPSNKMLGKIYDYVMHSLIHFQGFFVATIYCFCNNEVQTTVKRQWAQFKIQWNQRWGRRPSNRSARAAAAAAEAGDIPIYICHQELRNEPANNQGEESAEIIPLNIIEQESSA
T2 sequence (looked up) 2: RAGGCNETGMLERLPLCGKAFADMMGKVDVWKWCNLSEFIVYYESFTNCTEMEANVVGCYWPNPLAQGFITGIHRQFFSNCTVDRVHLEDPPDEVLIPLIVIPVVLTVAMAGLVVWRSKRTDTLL
The experiment in a line: cell-based or functional assay.

Starred links: 1 amine or outer side, 2 acyl side, 3 side chain; linkers in the order of their positions; H or OH if unused. Positions of bridges follow the written chain, without caps; N, C: chain ends. *: point of attachment. C20 diacid = O=C(O)CCCCCCCCCCCCCCCCCCC(=O)*; γGlu = O=C(O)[C@H](CCC(=O)[*:2])N[*:1]

B1: N-alpha-[(S)-4-Carboxy-4-(19-carboxynonadecanoylamino)butyryl]-Gly-[Arg1,His35]-pramlintide (peptide)
peptide: {C20 diacid-γGlu}-GRCNTATCATQRLANFLVHSSNNFGPILPPTNVGSHTY-NH2
modifications: disulfide 3-8
SMILES: CC[C@H](C)[C@H](NC(=O)[C@@H]1CCCN1C(=O)CNC(=O)[C@H](Cc1ccccc1)NC(=O)[C@H](CC(N)=O)NC(=O)[C@H](CC(N)=O)NC(=O)[C@H](CO)NC(=O)[C@H](CO)NC(=O)[C@H](Cc1c[nH]cn1)NC(=O)[C@@H](NC(=O)[C@H](CC(C)C)NC(=O)[C@H](Cc1ccccc1)NC(=O)[C@H](CC(N)=O)NC(=O)[C@H](C)NC(=O)[C@H](CC(C)C)NC(=O)[C@H](CCCNC(=N)N)NC(=O)[C@H](CCC(N)=O)NC(=O)[C@@H](NC(=O)[C@H](C)NC(=O)[C@@H]1CSSC[C@H](NC(=O)[C@H](CCCNC(=N)N)NC(=O)CNC(=O)CC[C@H](NC(=O)CCCCCCCCCCCCCCCCCCC(=O)O)C(=O)O)C(=O)N[C@@H](CC(N)=O)C(=O)N[C@@H]([C@@H](C)O)C(=O)N[C@@H](C)C(=O)N[C@@H]([C@@H](C)O)C(=O)N1)[C@@H](C)O)C(C)C)C(=O)N[C@@H](CC(C)C)C(=O)N1CCC[C@H]1C(=O)N1CCC[C@H]1C(=O)N[C@H](C(=O)N[C@@H](CC(N)=O)C(=O)N[C@H](C(=O)NCC(=O)N[C@@H](CO)C(=O)N[C@@H](Cc1c[nH]cn1)C(=O)N[C@H](C(=O)N[C@@H](Cc1ccc(O)cc1)C(N)=O)[C@@H](C)O)C(C)C)[C@@H](C)O
For B1, in assay [1], the “CTa receptor human EC50” value amounted to 0.0875 nM. Further, the “Amylin receptor human EC50” value in assay [2] worked out at 0.045 nM.

B2: N-alpha-[(S)-4-Carboxy-4-(19-carboxynonadecanoylamino)butyryl]-[Arg1,Glu14,His17,His35]-pramlintide (peptide)
peptide: {C20 diacid-γGlu}-RCNTATCATQRLAEFLHHSSNNFGPILPPTNVGSHTY-NH2
modifications: disulfide 2-7
SMILES: CC[C@H](C)[C@H](NC(=O)[C@@H]1CCCN1C(=O)CNC(=O)[C@H](Cc1ccccc1)NC(=O)[C@H](CC(N)=O)NC(=O)[C@H](CC(N)=O)NC(=O)[C@H](CO)NC(=O)[C@H](CO)NC(=O)[C@H](Cc1c[nH]cn1)NC(=O)[C@H](Cc1c[nH]cn1)NC(=O)[C@H](CC(C)C)NC(=O)[C@H](Cc1ccccc1)NC(=O)[C@H](CCC(=O)O)NC(=O)[C@H](C)NC(=O)[C@H](CC(C)C)NC(=O)[C@H](CCCNC(=N)N)NC(=O)[C@H](CCC(N)=O)NC(=O)[C@@H](NC(=O)[C@H](C)NC(=O)[C@@H]1CSSC[C@H](NC(=O)[C@H](CCCNC(=N)N)NC(=O)CC[C@H](NC(=O)CCCCCCCCCCCCCCCCCCC(=O)O)C(=O)O)C(=O)N[C@@H](CC(N)=O)C(=O)N[C@@H]([C@@H](C)O)C(=O)N[C@@H](C)C(=O)N[C@@H]([C@@H](C)O)C(=O)N1)[C@@H](C)O)C(=O)N[C@@H](CC(C)C)C(=O)N1CCC[C@H]1C(=O)N1CCC[C@H]1C(=O)N[C@H](C(=O)N[C@@H](CC(N)=O)C(=O)N[C@H](C(=O)NCC(=O)N[C@@H](CO)C(=O)N[C@@H](Cc1c[nH]cn1)C(=O)N[C@H](C(=O)N[C@@H](Cc1ccc(O)cc1)C(N)=O)[C@@H](C)O)C(C)C)[C@@H](C)O
On to B2, for which the “CTa receptor human EC50” value in assay [1] worked out at 0.175 nM. In addition, in assay [2], the “Amylin receptor human EC50” value came to 0.082 nM.

B3: N-alpha-[(S)-4-Carboxy-4-(19-carboxynonadecanoylamino)butyryl]-[Arg1,His35]-pramlintide (peptide)
peptide: {C20 diacid-γGlu}-RCNTATCATQRLANFLVHSSNNFGPILPPTNVGSHTY-NH2
modifications: disulfide 2-7
SMILES: CC[C@H](C)[C@H](NC(=O)[C@@H]1CCCN1C(=O)CNC(=O)[C@H](Cc1ccccc1)NC(=O)[C@H](CC(N)=O)NC(=O)[C@H](CC(N)=O)NC(=O)[C@H](CO)NC(=O)[C@H](CO)NC(=O)[C@H](Cc1c[nH]cn1)NC(=O)[C@@H](NC(=O)[C@H](CC(C)C)NC(=O)[C@H](Cc1ccccc1)NC(=O)[C@H](CC(N)=O)NC(=O)[C@H](C)NC(=O)[C@H](CC(C)C)NC(=O)[C@H](CCCNC(=N)N)NC(=O)[C@H](CCC(N)=O)NC(=O)[C@@H](NC(=O)[C@H](C)NC(=O)[C@@H]1CSSC[C@H](NC(=O)[C@H](CCCNC(=N)N)NC(=O)CC[C@H](NC(=O)CCCCCCCCCCCCCCCCCCC(=O)O)C(=O)O)C(=O)N[C@@H](CC(N)=O)C(=O)N[C@@H]([C@@H](C)O)C(=O)N[C@@H](C)C(=O)N[C@@H]([C@@H](C)O)C(=O)N1)[C@@H](C)O)C(C)C)C(=O)N[C@@H](CC(C)C)C(=O)N1CCC[C@H]1C(=O)N1CCC[C@H]1C(=O)N[C@H](C(=O)N[C@@H](CC(N)=O)C(=O)N[C@H](C(=O)NCC(=O)N[C@@H](CO)C(=O)N[C@@H](Cc1c[nH]cn1)C(=O)N[C@H](C(=O)N[C@@H](Cc1ccc(O)cc1)C(N)=O)[C@@H](C)O)C(C)C)[C@@H](C)O
In the case of B3, in assay [1], the “CTa receptor human EC50” value amounted to 0.193 nM. The “Amylin receptor human EC50” value in assay [2] is 0.0745 nM.

B4: N-alpha-[(S)-4-Carboxy-4-(19-carboxynonadecanoylamino)butyryl]-Gly-[Arg1,Glu14,His17,His35]-pramlintide (peptide)
peptide: {C20 diacid-γGlu}-GRCNTATCATQRLAEFLHHSSNNFGPILPPTNVGSHTY-NH2
modifications: disulfide 3-8
SMILES: CC[C@H](C)[C@H](NC(=O)[C@@H]1CCCN1C(=O)CNC(=O)[C@H](Cc1ccccc1)NC(=O)[C@H](CC(N)=O)NC(=O)[C@H](CC(N)=O)NC(=O)[C@H](CO)NC(=O)[C@H](CO)NC(=O)[C@H](Cc1c[nH]cn1)NC(=O)[C@H](Cc1c[nH]cn1)NC(=O)[C@H](CC(C)C)NC(=O)[C@H](Cc1ccccc1)NC(=O)[C@H](CCC(=O)O)NC(=O)[C@H](C)NC(=O)[C@H](CC(C)C)NC(=O)[C@H](CCCNC(=N)N)NC(=O)[C@H](CCC(N)=O)NC(=O)[C@@H](NC(=O)[C@H](C)NC(=O)[C@@H]1CSSC[C@H](NC(=O)[C@H](CCCNC(=N)N)NC(=O)CNC(=O)CC[C@H](NC(=O)CCCCCCCCCCCCCCCCCCC(=O)O)C(=O)O)C(=O)N[C@@H](CC(N)=O)C(=O)N[C@@H]([C@@H](C)O)C(=O)N[C@@H](C)C(=O)N[C@@H]([C@@H](C)O)C(=O)N1)[C@@H](C)O)C(=O)N[C@@H](CC(C)C)C(=O)N1CCC[C@H]1C(=O)N1CCC[C@H]1C(=O)N[C@H](C(=O)N[C@@H](CC(N)=O)C(=O)N[C@H](C(=O)NCC(=O)N[C@@H](CO)C(=O)N[C@@H](Cc1c[nH]cn1)C(=O)N[C@H](C(=O)N[C@@H](Cc1ccc(O)cc1)C(N)=O)[C@@H](C)O)C(C)C)[C@@H](C)O
As for B4, the “CTa receptor human EC50” value in assay [1] is 0.0895 nM. Besides, in assay [2], the “Amylin receptor human EC50” value turned out to be 0.0675 nM.

B5: N-alpha-[(S)-4-Carboxy-4-(19-carboxynonadecanoylamino)butyryl]-Gly-[Arg1,Glu14,Pro37]-pramlintide (peptide)
peptide: {C20 diacid-γGlu}-GRCNTATCATQRLAEFLVHSSNNFGPILPPTNVGSNTP-NH2
modifications: disulfide 3-8
SMILES: CC[C@H](C)[C@H](NC(=O)[C@@H]1CCCN1C(=O)CNC(=O)[C@H](Cc1ccccc1)NC(=O)[C@H](CC(N)=O)NC(=O)[C@H](CC(N)=O)NC(=O)[C@H](CO)NC(=O)[C@H](CO)NC(=O)[C@H](Cc1c[nH]cn1)NC(=O)[C@@H](NC(=O)[C@H](CC(C)C)NC(=O)[C@H](Cc1ccccc1)NC(=O)[C@H](CCC(=O)O)NC(=O)[C@H](C)NC(=O)[C@H](CC(C)C)NC(=O)[C@H](CCCNC(=N)N)NC(=O)[C@H](CCC(N)=O)NC(=O)[C@@H](NC(=O)[C@H](C)NC(=O)[C@@H]1CSSC[C@H](NC(=O)[C@H](CCCNC(=N)N)NC(=O)CNC(=O)CC[C@H](NC(=O)CCCCCCCCCCCCCCCCCCC(=O)O)C(=O)O)C(=O)N[C@@H](CC(N)=O)C(=O)N[C@@H]([C@@H](C)O)C(=O)N[C@@H](C)C(=O)N[C@@H]([C@@H](C)O)C(=O)N1)[C@@H](C)O)C(C)C)C(=O)N[C@@H](CC(C)C)C(=O)N1CCC[C@H]1C(=O)N1CCC[C@H]1C(=O)N[C@H](C(=O)N[C@@H](CC(N)=O)C(=O)N[C@H](C(=O)NCC(=O)N[C@@H](CO)C(=O)N[C@@H](CC(N)=O)C(=O)N[C@H](C(=O)N1CCC[C@H]1C(N)=O)[C@@H](C)O)C(C)C)[C@@H](C)O
B5: in assay [1], the “CTa receptor human EC50” value is 0.0505 nM. Besides, in assay [2], the “Amylin receptor human EC50” value worked out at 0.0495 nM.

B6: N-alpha-[(S)-4-Carboxy-4-(19-carboxynonadecanoylamino)butyryl]-[Arg1,Pro37]-pramlintide (peptide)
peptide: {C20 diacid-γGlu}-RCNTATCATQRLANFLVHSSNNFGPILPPTNVGSNTP-NH2
modifications: disulfide 2-7
SMILES: CC[C@H](C)[C@H](NC(=O)[C@@H]1CCCN1C(=O)CNC(=O)[C@H](Cc1ccccc1)NC(=O)[C@H](CC(N)=O)NC(=O)[C@H](CC(N)=O)NC(=O)[C@H](CO)NC(=O)[C@H](CO)NC(=O)[C@H](Cc1c[nH]cn1)NC(=O)[C@@H](NC(=O)[C@H](CC(C)C)NC(=O)[C@H](Cc1ccccc1)NC(=O)[C@H](CC(N)=O)NC(=O)[C@H](C)NC(=O)[C@H](CC(C)C)NC(=O)[C@H](CCCNC(=N)N)NC(=O)[C@H](CCC(N)=O)NC(=O)[C@@H](NC(=O)[C@H](C)NC(=O)[C@@H]1CSSC[C@H](NC(=O)[C@H](CCCNC(=N)N)NC(=O)CC[C@H](NC(=O)CCCCCCCCCCCCCCCCCCC(=O)O)C(=O)O)C(=O)N[C@@H](CC(N)=O)C(=O)N[C@@H]([C@@H](C)O)C(=O)N[C@@H](C)C(=O)N[C@@H]([C@@H](C)O)C(=O)N1)[C@@H](C)O)C(C)C)C(=O)N[C@@H](CC(C)C)C(=O)N1CCC[C@H]1C(=O)N1CCC[C@H]1C(=O)N[C@H](C(=O)N[C@@H](CC(N)=O)C(=O)N[C@H](C(=O)NCC(=O)N[C@@H](CO)C(=O)N[C@@H](CC(N)=O)C(=O)N[C@H](C(=O)N1CCC[C@H]1C(N)=O)[C@@H](C)O)C(C)C)[C@@H](C)O
In the case of B6, in assay [1], the “CTa receptor human EC50” value was 0.0385 nM. Also, the “Amylin receptor human EC50” value in assay [2] is 0.034 nM.
